Measured values: publication PMC2806190 (Cell, 2009)
One block for each molecule: values may come before it.

Key:
[1] = target: Sec39 (residues 1–709) (S. cerevisiae) (UniProt Q12745)
[2] = target: Dsl1 (residues 1–754) (S. cerevisiae) (UniProt P53847)
Sec39 (residues 1–709) [3] = target: T1, Sec39 (residues 1–709) (S. cerevisiae, UniProt Q12745 1-709); assay: SEC
T1 sequence (looked up): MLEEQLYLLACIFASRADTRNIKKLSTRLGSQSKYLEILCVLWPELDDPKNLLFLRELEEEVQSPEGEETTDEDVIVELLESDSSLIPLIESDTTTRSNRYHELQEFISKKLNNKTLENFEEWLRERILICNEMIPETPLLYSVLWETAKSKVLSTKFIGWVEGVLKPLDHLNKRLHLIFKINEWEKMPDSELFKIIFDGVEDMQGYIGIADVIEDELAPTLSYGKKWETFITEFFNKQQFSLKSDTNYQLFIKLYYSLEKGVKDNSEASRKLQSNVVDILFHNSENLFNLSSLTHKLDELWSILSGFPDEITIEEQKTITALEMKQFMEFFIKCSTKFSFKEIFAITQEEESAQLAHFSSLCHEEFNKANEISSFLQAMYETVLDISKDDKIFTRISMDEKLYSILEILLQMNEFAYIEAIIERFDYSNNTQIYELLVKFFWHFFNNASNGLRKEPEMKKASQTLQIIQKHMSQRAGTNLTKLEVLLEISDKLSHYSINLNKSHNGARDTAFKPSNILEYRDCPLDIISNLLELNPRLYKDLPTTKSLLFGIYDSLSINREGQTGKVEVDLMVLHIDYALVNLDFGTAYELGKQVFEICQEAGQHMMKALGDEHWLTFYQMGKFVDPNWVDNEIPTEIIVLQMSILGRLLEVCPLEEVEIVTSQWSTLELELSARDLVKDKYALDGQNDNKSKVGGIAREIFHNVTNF

Sec39 (residues 1–709) [4] = target: T1, Sec39 (residues 1–709); assay: co-purification
His-tagged Sec39 = target: T2, His-tagged Sec39 (S. cerevisiae, UniProt Q12745 1-709); assay: co-purification
T2 sequence (looked up): T1 sequence (looked up)

Sec39 residues 1–392 = target: T3, Sec39 residues 1–392 (S. cerevisiae, UniProt Q12745 1-392); assay: SEC
T3 sequence (looked up): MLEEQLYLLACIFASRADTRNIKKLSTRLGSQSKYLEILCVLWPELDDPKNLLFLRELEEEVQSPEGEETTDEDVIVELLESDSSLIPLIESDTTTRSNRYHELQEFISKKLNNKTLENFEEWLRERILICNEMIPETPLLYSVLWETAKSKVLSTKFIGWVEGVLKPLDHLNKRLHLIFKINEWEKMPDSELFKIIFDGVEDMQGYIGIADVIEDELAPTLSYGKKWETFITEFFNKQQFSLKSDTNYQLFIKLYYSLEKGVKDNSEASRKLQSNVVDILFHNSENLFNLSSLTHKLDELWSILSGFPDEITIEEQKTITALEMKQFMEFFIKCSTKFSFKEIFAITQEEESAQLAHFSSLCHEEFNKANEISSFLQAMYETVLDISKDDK

Kd [1]: 10 nM
Molecule: Dsl1 (residues 1–754) (from UniProt P53847 1-754) (natural protein)

Kd [2]: 100 nM
Molecule: Tip20 (residues 1–701) (from UniProt P33891 1-701) (natural protein)

binding result (Sec39 (residues 1–709) [3]): binds
B1: N-terminal peptide of Use1 (residues 1–35) (peptide, UniProt P53146 1-35, looked up)
peptide: MAETSNDPFLSYVLSSKQLTNLNRLRRKAVTKQLG

binding result (Sec39 (residues 1–709) [4]): binds
binding result (His-tagged Sec39): binds
B2: Use1 cytoplasmic domain (residues 1–212), TF tag removed (domain or fragment, S. cerevisiae, UniProt P53146 1-212, looked up)
chain: MAETSNDPFLSYVLSSKQLTNLNRLRRKAVTKQLGSSDDNKVSEEFLRYQHTYQREAFEYLQTKHDAHKIMESQYEQYQSSSKTRRYSIDLDSVDAVDTESQTEYPNEEFIDRNEDSEAVMELRKRLLGKGQNKGLGYETTKSVDRQIEDQDTLQQDLIQDMSKLVGSLKQGAVAFQSALDEDKQVLGAAEIGIQVASQGLMDVSGKLRKYD

binding result (Sec39 residues 1–392): binds
B3: TF-Use1 (residues 1–212 fused to trigger factor) (domain or fragment, S. cerevisiae, UniProt P53146 1-212, looked up)
chain: B2 chain
